Reference: paper PMC7408065, “Heterodimeric Radiotracer Targeting PSMA and GRPR for Imaging of Prostate Cancer—Optimization of the Affinity towards PSMA by Linker Modification in Murine Model” (Pharmaceutics, 2020)
Numbered stars: 1 amine (or outer) side, 2 acyl side, 3 side chain; on linkers, the order of the positions; unused ones are H or OH. Square brackets hold non-standard residues; d marks the D form. Peptide text beside a SMILES is read from it. * marks the point of attachment. NOTA = O=C(O)CN1CCN(CC(=O)O)CCN(CC(=O)*)CC1; γGlu = O=C(O)[C@H](CCC(=O)[*:2])N[*:1]; Sta = CC(C)C[C@H](N)[C@@H](O)CC(=O)O; AEEA = NCCOCCOCC(=O)O; Aoc = NCCCCCCCC(=O)O; CO = O=C([*:1])[*:2]

Legend:
[1] = Distribution coefficient (LogD), n-octanol/water; format: physicochemical; conditions: indium-111 labeled compound
Protocol: The tube was vortexed, centrifuged and fractions (100 µL) from each phase were collected and activity was measured using a gamma counter. The experiment was repeated twice for each compound.

in vivo = test: in vivo; set-up: species or system BALB/c nu/nu mice; conditions: BALB/c nu/nu, mouse, 40 pmol/animal, total radioactivity; for tissue uptake at 1 h: Activity uptake; for tissue to tissue ratio at 1 h / tissue to tissue ratio at 3 h / tissue to tissue ratio at 24 h: Tumor-to-organ ratio
Protocol: (§1) The in vivo experiments were performed using BALB/c nu/nu mice bearing PC3-pip xenografts. The mice were implanted with 5 × 10^6 PC3-pip cells 12 days prior to the experiments. In vivo experiments were planned and performed in accordance with the national legislation on laboratory animals’ protection and were approved by the Ethics Committee for Animal Research in Uppsala, Sweden. PC3-pip tumor-bearing mice were injected with 40 pmol (30 kBq) of [^111In]In-BQ7812 per mouse. Groups were also co-injected with 7.5 nmol of non-labeled NOTA-PEG4-RM26 and/or 7.5 nmol of non-labeled PSMA-11 to block GRPR and/or PSMA. Mice were euthanized at 1, 3 and 24 h pi. Organs of interest were collected, weighed and the activity uptake in each organ was measured using a gamma counter.

PC3-pip xenografts = test: in vivo; set-up: species or system BALB/c nu/nu mice; conditions: mouse
Protocol: as §1

CC(C)C[C@H](NC(=O)C[C@H](O)[C@H](CC(C)C)NC(=O)[C@H](Cc1c[nH]cn1)NC(=O)CNC(=O)[C@@H](NC(=O)[C@H](C)NC(=O)[C@H](Cc1c[nH]c2ccccc12)NC(=O)[C@H](CCC(N)=O)NC(=O)[C@@H](Cc1ccccc1)NC(=O)COCCOCCNC(=O)[C@H](CCCCNC(=O)CN1CCN(CC(=O)O)CCN(CC(=O)O)CC1)NC(=O)[C@H](Cc1ccccc1)NC(=O)CCCCCCCNC(=O)CC[C@H](NC(=O)N[C@@H](CCC(=O)O)C(=O)O)C(=O)O)C(C)C)C(N)=O [BQ7812] ({Glu-CO-γGlu-Aoc}-FK(NOTA)[AEEA][dF]QWAVGH[Sta]L-NH2)
logD [1]: -1.44

CC(C)C[C@H](NC(=O)C[C@H](O)[C@H](CC(C)C)NC(=O)[C@H](Cc1c[nH]cn1)NC(=O)CNC(=O)[C@@H](NC(=O)[C@H](C)NC(=O)[C@H](Cc1c[nH]c2ccccc12)NC(=O)[C@H](CCC(N)=O)NC(=O)[C@@H](Cc1ccccc1)NC(=O)COCCOCCNC(=O)[C@H](CCCCNC(=O)CN1CCN(CC(=O)O)CCN(CC(=O)O)CC1)NC(=O)[C@H](Cc1ccccc1)NC(=O)CCCCCCCNC(=O)CC[C@H](NC(=O)N[C@@H](CCC(=O)O)C(=O)O)C(=O)O)C(C)C)C(N)=O [[^111In]In-BQ7812, metal not drawn] ({Glu-CO-γGlu-Aoc}-FK(NOTA)[AEEA][dF]QWAVGH[Sta]L-NH2)
tissue uptake at 1 h (in vivo; Lung): 1.34 %ID/g | tissue uptake at 1 h (in vivo; Pancreas): 5.83 %ID/g | tissue to tissue ratio at 1 h (in vivo; Blood): 11.7 ± 2.3 | tissue to tissue ratio at 3 h (in vivo; Blood): 55.5 ± 15.6 | tissue to tissue ratio at 24 h (in vivo; Blood): 68.9 ± 10.4 | tissue to tissue ratio at 1 h (in vivo; Bone): 24.5 ± 3.25 | tissue to tissue ratio at 3 h (in vivo; Bone): 35.1 ± 25.7 | tissue to tissue ratio at 24 h (in vivo; Bone): 10.9 ± 2.46 | tissue to tissue ratio at 1 h (in vivo; Kidney): 0.27 ± 0.07 | tissue to tissue ratio at 3 h (in vivo; Kidney): 0.39 ± 0.09 | tissue to tissue ratio at 24 h (in vivo; Kidney): 0.18 ± 0.02 | tissue to tissue ratio at 1 h (in vivo; Liver): 4.56 ± 0.77 | tissue to tissue ratio at 3 h (in vivo; Liver): 3.08 ± 1 | tissue to tissue ratio at 24 h (in vivo; Liver): 1.04 ± 0.15 | tissue to tissue ratio at 1 h (in vivo; Lung): 12.3 ± 1.34 | tissue to tissue ratio at 3 h (in vivo; Lung): 25.3 ± 10 | tissue to tissue ratio at 24 h (in vivo; Lung): 13.9 ± 1.65 | tissue to tissue ratio at 1 h (in vivo; Muscle): 41 ± 7.76 | tissue to tissue ratio at 3 h (in vivo; Muscle): 53.3 ± 24.4 | tissue to tissue ratio at 24 h (in vivo; Muscle): 23.6 ± 4.58 | tissue to tissue ratio at 1 h (in vivo; Pancreas): 2.77 ± 0.43 | tissue to tissue ratio at 3 h (in vivo; Pancreas): 10.9 ± 3.05 | tissue to tissue ratio at 24 h (in vivo; Pancreas): 8.19 ± 1.92 | tissue to tissue ratio at 1 h (in vivo; Salivary glands): 18.7 ± 2.6 | tissue to tissue ratio at 3 h (in vivo; Salivary glands): 20.6 ± 7.98 | tissue to tissue ratio at 24 h (in vivo; Salivary glands): 7.39 ± 1.88 | tissue to tissue ratio at 1 h (in vivo; Small intestine): 9.31 ± 1.8 | tissue to tissue ratio at 3 h (in vivo; Small intestine): 13.4 ± 3.68 | tissue to tissue ratio at 24 h (in vivo; Small intestine): 5.52 ± 2.17 | tissue to tissue ratio at 1 h (in vivo; Spleen): 11.5 ± 2.37 | tissue to tissue ratio at 3 h (in vivo; Spleen): 20.8 ± 5.1 | tissue to tissue ratio at 24 h (in vivo; Spleen): 6.32 ± 1.59 | tissue to tissue ratio at 1 h (in vivo; Stomach): 12.5 ± 2.36 | tissue to tissue ratio at 3 h (in vivo; Stomach): 18.3 ± 2.8 | tissue to tissue ratio at 24 h (in vivo; Stomach): 10.5 ± 2.28 | tumor-to-liver ratio (PC3-pip xenografts): over five
